Reference: US20100021480A1, “BIOACTIVE SUBSTANCE-BLOOD PROTEIN CONJUGATE AND STABILIZATION OF A BIOACTIVE SUBSTANCE USING THE SAME” (priority 2005, published 2010)

Key:
[1] = biological target: activated albumin 21 (human serum albumin whose Cys34 free thiol is substituted by a disulfanyl group with aldrithiol) (human) (UniProt P02768); experiment: albumin binding test: 50 µl of 1 mM Compound 15 with 40 µl of 1 mM activated albumin, HPLC of supernatant (unbound peptide)
[2] = biological target: activated albumin 21 (human serum albumin whose Cys34 free thiol is substituted by a disulfanyl group with aldrithiol) (human) (UniProt P02768); experiment: albumin binding test: 50 µl of 1 mM Compound 15 with 50 µl of 1 mM activated albumin in 100 µl, 37 C 30 min, methanol precipitation, HPLC of supernatant (unbound peptide)
[3] = biological target: activated albumin 21 (human serum albumin whose Cys34 free thiol is substituted by a disulfanyl group with aldrithiol) (human) (UniProt P02768); experiment: albumin binding test: 40 µl of 1 mM Compound 15 with 50 µl of 1 mM activated albumin in 100 µl PBS, 37 C 30 min, methanol precipitation, HPLC of supernatant (unbound peptide)
[4] = biological target: activated albumin 21 (human serum albumin whose Cys34 free thiol is substituted by a disulfanyl group with aldrithiol) (human) (UniProt P02768); experiment: albumin binding test: 50 µl of 1 mM Compound 15 with 40 µl of 1 mM activated albumin in 100 µl PBS, 37 C 30 min, methanol precipitation, HPLC of supernatant (unbound peptide)
[5] = biological target: activated albumin 21 (human serum albumin whose Cys34 free thiol is substituted by a disulfanyl group with aldrithiol) (human) (UniProt P02768); experiment: albumin binding test: 50 µl of 1 mM Compound 15 with 50 µl of 1 mM activated albumin, HPLC of supernatant (unbound peptide)
[6] = biological target: activated albumin 21 (human serum albumin whose Cys34 free thiol is substituted by a disulfanyl group with aldrithiol) (human) (UniProt P02768); experiment: albumin binding test: 40 µl of 1 mM Compound 15 with 50 µl of 1 mM activated albumin, HPLC of supernatant (unbound peptide)
[7] = biological target: activated albumin 21 (human serum albumin whose Cys34 free thiol is substituted by a disulfanyl group with aldrithiol) (human) (UniProt P02768); experiment: albumin binding test: 20 µl of 1 mM Compound 15 with 50 µl of 1 mM activated albumin in 100 µl PBS, 37 C 30 min, methanol precipitation, HPLC of supernatant (unbound peptide)
[8] = biological target: activated albumin 21 (human serum albumin whose Cys34 free thiol is substituted by a disulfanyl group with aldrithiol) (human) (UniProt P02768); experiment: albumin binding test: 20 µl of 1 mM Compound 15 with 50 µl of 1 mM activated albumin, HPLC of supernatant (unbound peptide)

activated albumin 21 (human serum albumin whose Cys34 free thiol is substituted by a disulfanyl group with aldrithiol) (human), sequence (P02768 25-609 limits assumed): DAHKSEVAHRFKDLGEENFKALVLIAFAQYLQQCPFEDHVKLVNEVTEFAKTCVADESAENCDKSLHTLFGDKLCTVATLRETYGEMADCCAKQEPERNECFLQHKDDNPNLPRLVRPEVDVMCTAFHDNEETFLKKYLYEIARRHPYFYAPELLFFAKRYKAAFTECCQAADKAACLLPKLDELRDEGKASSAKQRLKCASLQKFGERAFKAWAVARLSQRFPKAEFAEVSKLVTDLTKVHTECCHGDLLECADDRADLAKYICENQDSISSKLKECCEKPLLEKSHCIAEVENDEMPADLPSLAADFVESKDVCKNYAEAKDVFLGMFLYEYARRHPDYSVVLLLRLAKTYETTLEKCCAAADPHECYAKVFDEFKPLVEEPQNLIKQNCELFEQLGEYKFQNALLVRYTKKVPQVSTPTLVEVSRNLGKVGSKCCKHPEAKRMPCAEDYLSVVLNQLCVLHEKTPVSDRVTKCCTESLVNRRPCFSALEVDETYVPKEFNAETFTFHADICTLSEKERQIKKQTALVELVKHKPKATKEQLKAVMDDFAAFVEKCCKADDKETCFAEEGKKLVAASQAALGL

Compound 15: Leuprolide-GSG-Lys-[ε-AEEA-CO-(CH2)2-SH]-NH2.2TFA (peptide)
PA 20.6 min/4.4M (peak area against that of 10 µl Compound 15 alone) [1]: 4 | PA 20.6 min (HPLC peak area of Compound 15 left in the supernatant) [2]: 1.47e+07 peak area | PA 20.6 min (HPLC peak area of Compound 15 left in the supernatant) [3]: 9.8e+06 peak area | PA 20.6 min (HPLC peak area of Compound 15 left in the supernatant) [4]: 1.79e+07 peak area | PA 20.6 min/4.4M (peak area against that of 10 µl Compound 15 alone) [5]: 3.3 | PA 20.6 min/4.4M (peak area against that of 10 µl Compound 15 alone) [6]: 2.2 | PA 20.6 min (HPLC peak area of Compound 15 left in the supernatant) [7]: 1.3e+06 peak area | PA 20.6 min/4.4M (peak area against that of 10 µl Compound 15 alone) [8]: 0.3
